Source: article PMC9229378, “Copper-67-Labeled Bombesin Peptide for Targeted Radionuclide Therapy of Prostate Cancer” (Pharmaceuticals, 2022)
Where two headings read alike, the source gives them in different places.

What was measured:
[1] = format: in vitro ADME, human
Procedure: (§1) Briefly, 100 µL of the radiolabeled complex was added to 100 µL PBS 1X or human serum (HSA […]) in triplicate. [^67Cu]Cu-SAR-BBN was incubated at 37 °C for 14, 24, 48, 72, and 96 h with moderate agitation. An aliquot (0.5 μL) was withdrawn at each specified time point. Radio-TLCs with a mobile phase of 50 mM DTPA were performed to evaluate the percentage of intact radiolabeled peptides.

Stability in PBS 1X = format: physicochemical; settings: 1:1 with radiolabeled complex, 37 °C, 96 h, moderate agitation, radio-TLC, 50 mM DTPA, triplicate
Procedure: as §1

[2] = system: GRPR-positive PC-3 cell line; assay: Cell binding and internalization; format: cell-based; settings: PC-3 cells
Procedure: The PC-3 cell line was purchased from ATCC (Manassas, VA, USA), revived from liquid nitrogen storage, and cultured at 37 °C, 5% CO2. PC-3 cells were cultured in media containing DMEM, 10% heat-inactivated fetal bovine serum (FBS) (Gibco, Thermo Fisher Scientific, Inc., Waltham, MA, USA), and 10 mM HEPES.
A PC-3 cell suspension was prepared in 1X PBS at a concentration of 10^6 cells/100 μL. Eppendorf tubes (in triplicates) were pretreated with 5% bovine serum albumin (BSA) in PBS to block non-specific binding. Tyr^4-BBN, as a blocking agent, was diluted in 5% BSA in PBS. Then, 100 μL of cells and either 20 μg block or PBS 1X were added to each tube. Approximately 100,000 cpm of [^67Cu]Cu-SAR-BBN was added to the tubes. Cells were incubated at 37 °C at moderate speed to prevent cell settling. After each specified time point (30, 60, 120, 240, and 360 min), cells were centrifuged and the supernatant was aspirated from cell pellets, which was followed by two additional rinses with ice-cold PBS. Cells pellets were then collected and counted for activity on a gamma counter. To determine the fraction of internalized radiotracer, cells were treated with 2 × 0.5 mL of 20 mM sodium acetate (pH 4.0) for 2 min to remove surface-bound radioactivity and counted again for activity.

[3] = Biodistribution in normal tissues; format: in vivo, C57BL/6 female mice; settings: for tissue uptake at 2 h / tissue uptake at 4 h / tissue uptake at 6 h / tissue uptake at 24 h / tissue uptake at 72 h / tissue uptake at 144 h / tissue uptake at 216 h / tissue uptake at 1 h: female, C57BL/6, mouse, iv, 0.37 MBq, total radioactivity
Procedure: To determine the biodistribution of [^67Cu]Cu-SAR-BBN in normal tissues, 40 female C57BL/6 mice were evaluated in groups of 5 mice at various time points. [^67Cu]Cu-SAR-BBN was prepared in 0.9% saline with a concentration of 0.37 MBq (10 µCi) per 100 µL. Mice (n = 5) were injected with 0.37 MBq radiotracers via tail vein and sacrificed by cervical dislocation at 1 h, 2 h, 4 h, 6 h, 24 h, 3 days, 6 days, and 9 days. Blood, lung, liver, spleen, kidney, muscle, heart, bone, and pancreas were harvested and counted for activity on a gamma counter. The percent injected dose per gram for each tissue of interest (% ID/g) was calculated and expressed as Mean ± SD. All radioactivity measurements were corrected for decay.

PC-3 tumors [4] = assay: Therapy study in PC-3 tumor-bearing mice; format: in vivo, athymic nude mice
Procedure: (§2) To assess the therapeutic potential of [^67Cu]Cu-SAR-BBN, athymic nude mice bearing subcutaneous PC-3 tumors with a tumor size of ~150 mm^3 were randomly assigned into 2 groups (n = 12 mice per group). For treatment, mice were dosed intravenously with three injections of 24 MBq [^67Cu]Cu-SAR-BBN on days 0, 2, and 4, followed by a drug-free week before the injections of 24 MBq on days 14, 16, and 18. The total activity injected corresponded to 144 MBq. The control group was injected via tail vein with six injections of 0.9% saline at the same time points. Body weight and tumor volume (through caliper measurements) were monitored and recorded three times a week. Tumor size was calculated by the following formula: L × W^2/2, where L is the long diameter of the tumor and W is the short diameter of the tumor. […] Any remaining mice at day 54 were euthanized, and tumor volume and survival curves were generated and analyzed to evaluate the efficacy of [^67Cu]Cu-SAR-BBN. Percentage tumor growth inhibition was calculated as 100 × (1 − ΔT/ΔC), where ΔC and ΔT were determined by subtracting the mean tumor volume (in the vehicle control and treated group, respectively) on day 0 of treatment from the mean tumor volume on day 19 (the last day all mice remained in the study). […]

[5] = Treatment-related toxicity (body weight, H&E histology of kidney, pancreas, liver); format: in vivo, athymic nude mice
Procedure: as §2

PC-3 tumors [6] = assay: Tumor histology and Ki-67 immunostaining; format: in vivo, athymic nude mice
Procedure: The kidneys, pancreas, livers, and tumors of 4 control mice and 4 treated mice were harvested and fixed in neutral buffered formalin. After fixation and dehydration, tissue samples were embedded in paraffin, and tissue sections were then stained with either hematoxylin and eosin (H&E) or Ki-67 for microscopic examination. H&E staining of tissue samples was prepared by the Anatomic and Molecular Pathology Core Lab, Washington University in St Louis. Ki-67 immunostaining was performed on 5 µm tissue sections of PC-3 tumors. The slides were baked in 55 °C oven for 60 min. The sections were deparaffinized, and heat-induced antigen retrieval was performed in citrate buffer 0.1 M pH 6.0 at 92 °C. After 20 min, the slides were cooled in 4 °C fridge for 15 min. The sections were then blocked with Dako Endogenous Enzyme Block (Dako North America, Inc., Carpinteria, CA, USA) for 10 min and washed twice with Dako Wash Buffer 1X. The sections were blocked with 10% goat serum in PBS for another 45 min and washed 2 × 5 min with Dako Wash Buffer 1X. The slides were then rinsed and incubated with Ki-67 antibody (1:100 dilution) overnight at 4 °C. […] Staining results were assessed by Olympus fluorescent microscope (BX51) and the cell Sense software in a blinded manner.

CC(C)C[C@H](NC(=O)C[C@H](O)[C@H](CC(C)C)NC(=O)[C@H](Cc1c[nH]cn1)NC(=O)CNC(=O)[C@@H](NC(=O)[C@H](C)NC(=O)[C@H](Cc1c[nH]c2ccccc12)NC(=O)[C@H](CCC(N)=O)NC(=O)[C@@H](Cc1ccccc1)NC(=O)CCOCCOCCOCCOCCNC(=O)CCCC(=O)NC12CNCCNCC(C)(CNCCNC1)CNCCNC2)C(C)C)C(N)=O [[^67Cu]Cu-SAR-BBN, metal not drawn]
free 67Cu in human serum [1]: < 5% | intact radiolabeled peptide in PBS 1X (Stability in PBS 1X): greater than 95% | bound to the GRPR receptors ([2]; 37 °C): more than 50% | internalized into the cells ([2]; 37 °C): about 20% | total bound with blocking (non-specific binding, % of total added radioactivity) ([2]; excess Tyr4-BBN (20 μg block)): 5.8 ± 0.1% | Kidney %ID/g ([3]; 1 h after i.v. injection of 0.37 MBq, mean, n = 5): 6.15 %ID/g | tissue uptake at 2 h ([3]; in vivo, Blood %ID/g): 0.62 %ID/g | tissue uptake at 4 h ([3]; in vivo, Blood %ID/g): 0.53 %ID/g | tissue uptake at 6 h ([3]; in vivo, Blood %ID/g): 0.54 %ID/g | tissue uptake at 24 h ([3]; in vivo, Blood %ID/g): 0.33 %ID/g | tissue uptake at 72 h ([3]; in vivo, Blood %ID/g): 0.39 %ID/g | tissue uptake at 144 h ([3]; in vivo, Blood %ID/g): 0.11 %ID/g | tissue uptake at 216 h ([3]; in vivo, Blood %ID/g): 0.06 %ID/g | tissue uptake at 1 h ([3]; in vivo, Bone %ID/g): 0.88 %ID/g | tissue uptake at 2 h ([3]; in vivo, Bone %ID/g): 0.4 %ID/g | tissue uptake at 4 h ([3]; in vivo, Bone %ID/g): 0.47 %ID/g | tissue uptake at 6 h ([3]; in vivo, Bone %ID/g): 0.46 %ID/g | tissue uptake at 24 h ([3]; in vivo, Bone %ID/g): 0.31 %ID/g | tissue uptake at 72 h ([3]; in vivo, Bone %ID/g): 0.25 %ID/g | tissue uptake at 144 h ([3]; in vivo, Bone %ID/g): 0.09 %ID/g | tissue uptake at 216 h ([3]; in vivo, Bone %ID/g): 0.09 %ID/g | tissue uptake at 1 h ([3]; in vivo, Heart %ID/g): 1 %ID/g | tissue uptake at 2 h ([3]; in vivo, Heart %ID/g): 0.58 %ID/g | tissue uptake at 4 h ([3]; in vivo, Heart %ID/g): 0.78 %ID/g | tissue uptake at 6 h ([3]; in vivo, Heart %ID/g): 0.84 %ID/g | tissue uptake at 24 h ([3]; in vivo, Heart %ID/g): 0.84 %ID/g | tissue uptake at 72 h ([3]; in vivo, Heart %ID/g): 1.35 %ID/g | tissue uptake at 144 h ([3]; in vivo, Heart %ID/g): 0.93 %ID/g | tissue uptake at 216 h ([3]; in vivo, Heart %ID/g): 0.58 %ID/g | tissue uptake at 2 h ([3]; in vivo, Liver %ID/g): 5.08 %ID/g | tissue uptake at 4 h ([3]; in vivo, Liver %ID/g): 5.9 %ID/g | tissue uptake at 6 h ([3]; in vivo, Liver %ID/g): 6.78 %ID/g | tissue uptake at 24 h ([3]; in vivo, Liver %ID/g): 3.8 %ID/g | tissue uptake at 72 h ([3]; in vivo, Liver %ID/g): 4.03 %ID/g | tissue uptake at 144 h ([3]; in vivo, Liver %ID/g): 1.31 %ID/g | tissue uptake at 216 h ([3]; in vivo, Liver %ID/g): 0.59 %ID/g | tissue uptake at 2 h ([3]; in vivo, Lung %ID/g): 1.95 %ID/g | tissue uptake at 4 h ([3]; in vivo, Lung %ID/g): 2.68 %ID/g | tissue uptake at 6 h ([3]; in vivo, Lung %ID/g): 3.25 %ID/g | tissue uptake at 24 h ([3]; in vivo, Lung %ID/g): 1.81 %ID/g | tissue uptake at 72 h ([3]; in vivo, Lung %ID/g): 1.89 %ID/g | tissue uptake at 144 h ([3]; in vivo, Lung %ID/g): 0.68 %ID/g | tissue uptake at 216 h ([3]; in vivo, Lung %ID/g): 0.32 %ID/g | tissue uptake at 1 h ([3]; in vivo, Muscle %ID/g): 0.52 %ID/g | tissue uptake at 2 h ([3]; in vivo, Muscle %ID/g): 0.25 %ID/g | tissue uptake at 4 h ([3]; in vivo, Muscle %ID/g): 0.35 %ID/g | tissue uptake at 6 h ([3]; in vivo, Muscle %ID/g): 0.59 %ID/g | tissue uptake at 24 h ([3]; in vivo, Muscle %ID/g): 0.2 %ID/g | tissue uptake at 72 h ([3]; in vivo, Muscle %ID/g): 0.27 %ID/g | tissue uptake at 144 h ([3]; in vivo, Muscle %ID/g): 0.21 %ID/g | tissue uptake at 216 h ([3]; in vivo, Muscle %ID/g): 0.15 %ID/g | tissue uptake at 2 h ([3]; in vivo, Pancreas %ID/g): 14.7 %ID/g | tissue uptake at 4 h ([3]; in vivo, Pancreas %ID/g): 5.48 %ID/g | tissue uptake at 6 h ([3]; in vivo, Pancreas %ID/g): 3.38 %ID/g | tissue uptake at 24 h ([3]; in vivo, Pancreas %ID/g): 0.55 %ID/g | tissue uptake at 72 h ([3]; in vivo, Pancreas %ID/g): 0.75 %ID/g | tissue uptake at 144 h ([3]; in vivo, Pancreas %ID/g): 0.39 %ID/g | tissue uptake at 216 h ([3]; in vivo, Pancreas %ID/g): 0.22 %ID/g | tissue uptake at 1 h ([3]; in vivo, Spleen %ID/g): 1.94 %ID/g | tissue uptake at 2 h ([3]; in vivo, Spleen %ID/g): 1.27 %ID/g | tissue uptake at 4 h ([3]; in vivo, Spleen %ID/g): 0.94 %ID/g | tissue uptake at 6 h ([3]; in vivo, Spleen %ID/g): 0.9 %ID/g | tissue uptake at 24 h ([3]; in vivo, Spleen %ID/g): 0.51 %ID/g | tissue uptake at 72 h ([3]; in vivo, Spleen %ID/g): 0.74 %ID/g | tissue uptake at 144 h ([3]; in vivo, Spleen %ID/g): 0.3 %ID/g | tissue uptake at 216 h ([3]; in vivo, Spleen %ID/g): 0.14 %ID/g | tissue uptake at 2 h ([3]; kidney, 2 h after i.v. injection of 0.37 MBq, mean, n = 5, read-out: Kidney %ID/g): 3.99 %ID/g | tissue uptake at 4 h ([3]; kidney, 4 h after i.v. injection of 0.37 MBq, mean, n = 5, read-out: Kidney %ID/g): 3.48 %ID/g | tissue uptake at 6 h ([3]; kidney, 6 h after i.v. injection of 0.37 MBq, mean, n = 5, read-out: Kidney %ID/g): 3.53 %ID/g | tissue uptake at 24 h ([3]; kidney, 24 h after i.v. injection of 0.37 MBq, mean, n = 5, read-out: Kidney %ID/g): 2.37 %ID/g | tissue uptake at 72 h ([3]; kidney, 72 h after i.v. injection of 0.37 MBq, mean, n = 5, read-out: Kidney %ID/g): 3.1 %ID/g | tissue uptake at 144 h ([3]; kidney, 6 days after i.v. injection of 0.37 MBq, mean, n = 5, read-out: Kidney %ID/g): 1.37 %ID/g | tissue uptake at 216 h ([3]; kidney, 9 days after i.v. injection of 0.37 MBq, mean, n = 5, read-out: Kidney %ID/g): 0.74 %ID/g | reduction of activity circulating in the blood relative to the 1 h value ([3]; mouse, in vivo): over 70% | rapid recurrence of tumor needing early sacrifice (PC-3 tumors [4]; 144 MBq over 3 weeks): no animals having a rapid recurrence | median survival (time to tumor endpoint of 2500 mm^3) (PC-3 tumors [4]; six i.v. doses of 24 MBq, total 144 MBq, n = 12, study ended day 54, control 34.5 days, p = 0.0015): greater than 54 days | histological changes in kidney, pancreas and liver vs control (H&E) ([5]; mouse, in vivo): no significant histological changes | deaths or euthanasia not related to tumor volume ([5]; treated group, n = 12, censored in the survival analysis): one mouse from the [^67Cu]Cu-SAR-BBN group was euthanized due to tumor ulceration (day 38), and another two died due to unknown causes (day 5 and day 22) | tumor necrosis (blinded review of tumor samples) (PC-3 tumors [6]; 4 tumors per group): more extensive areas of necrosis in three out of four tumors | mean proliferation index (PI), Ki-67 (PC-3 tumors [6]; tumor areas without necrosis, immune infiltrate or host stroma, 4 tumors, control 38.1%, p = 0.26): 50.3%
